Laboratory results taken from US20220119534A1 (DRAGONFLY THERAPEUTICS, published 2022).

Legend:
Human CLEC12A-His [1] = biological target: T1, Human CLEC12A-His (human, UniProt Q5QGZ9 65-265); test: cell-based or functional assay
T1 sequence: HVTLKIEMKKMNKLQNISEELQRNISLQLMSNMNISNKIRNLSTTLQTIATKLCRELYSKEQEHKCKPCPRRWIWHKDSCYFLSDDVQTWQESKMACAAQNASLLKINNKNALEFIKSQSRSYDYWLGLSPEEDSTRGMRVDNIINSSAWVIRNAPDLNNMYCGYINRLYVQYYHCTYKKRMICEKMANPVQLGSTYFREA

Human CLEC12A-His [2] = biological target: T1, Human CLEC12A-His; test: SPR Biacore 8K 37 C; TriNKET captured on anti-hFc chip, hCLEC12A-His as analyte; two-state fit, kd2
Human CLEC12A-His [3] = biological target: T1, Human CLEC12A-His; test: SPR Biacore 8K 37 C; TriNKET captured on anti-hFc chip, hCLEC12A-His as analyte; two-state fit, ka1 only; two-state fit; ka1 only
Human CLEC12A-His [4] = biological target: T1, Human CLEC12A-His; test: SPR Biacore 8K 37 C; TriNKET captured on anti-hFc chip, hCLEC12A-His as analyte; two-state fit, kd1; two-state fit; kd1
Human CLEC12A-His [5] = biological target: T1, Human CLEC12A-His; test: SPR Biacore 8K 37 C; TriNKET captured on anti-hFc chip, hCLEC12A-His as analyte; two-state fit; two-state fit

koff (Human CLEC12A-His [2]): 0.000949 s⁻¹ | kon (Human CLEC12A-His [3]): 1.63e+06 M⁻¹ s⁻¹ | koff (Human CLEC12A-His [4]): 0.0157 s⁻¹ | Kd (Human CLEC12A-His [5]): 2.41 nM
B1: AB0053 (bispecific antibody)
chain 1: QLQLQESGPGLVKPSETLSLTCTVSGFSLTNYGLHWIRQPPGKCLEWIGVIWSGGKTDYNPSLKSRVTISKDTSKNQFSLKLSSVQAADTAVYYCAKYDYDDALDYWGQGTLVTVSSGGGGSGGGGSGGGGSGGGGSDIQMTQSPSSLSASVGDRVTITCHASQNINFWLSWYQQKPGKAPKLLIYEASNLHTGVPSRFSGSGSGTRFTLTISSLQPEDIATYYCQQSHSYPLTFGCGTKLEIKGSDKTHTCPPCPAPELLGGPSVFLFPPKPKDTLMISRTPEVTCVVVDVSHEDPEVKFNWYVDGVEVHNAKTKPREEQYNSTYRVVSVLTVLHQDWLNGKEYKCKVSNKALPAPIEKTISKAKGQPREPRVYTLPPCRDELTKNQVSLTCLVKGFYPSDIAVEWESNGQPENNYKTTPPVLVSDGSFTLYSKLTVDKSRWQQGNVFSCSVMHEALHNHYTQKSLSLSPG
chain 2: EVQLVESGGGLVKPGGSLRLSCAASGFTFSSYSMNWVRQAPGKGLEWVSSISSSSSYIYYADSVKGRFTISRDNAKNSLYLQMNSLRAEDTAVYYCARGAPIGAAAGWFDPWGQGTLVTVSSASTKGPSVFPLAPSSKSTSGGTAALGCLVKDYFPEPVTVSWNSGALTSGVHTFPAVLQSSGLYSLSSVVTVPSSSLGTQTYICNVNHKPSNTKVDKKVEPKSCDKTHTCPPCPAPELLGGPSVFLFPPKPKDTLMISRTPEVTCVVVDVSHEDPEVKFNWYVDGVEVHNAKTKPREEQYNSTYRVVSVLTVLHQDWLNGKEYKCKVSNKALPAPIEKTISKAKGQPREPQVCTLPPSRDELTENQVSLTCLVKGFYPSDIAVEWESNGQPENNYKTTPPVLDSDGSFFLYSWLTVDKSRWQQGNVFSCSVMHEALHNHYTQKSLSLSPG
chain 3: DIQMTQSPSSVSASVGDRVTITCRASQGISSWLAWYQQKPGKAPKLLIYAASSLQSGVPSRFSGSGSGTDFTLTISSLQPEDFATYYCQQGVSFPRTFGGGTKVEIKRTVAAPSVFIFPPSDEQLKSGTASVVCLLNNFYPREAKVQWKVDNALQSGNSQESVTEQDSKDSTYSLSSTLTLSKADYEKHKVYACEVTHQGLSSPVTKSFNRGEC
EC50 (nM), KHYG-1-CD16aV cytotoxicity assay, PL-21 cells (Human CLEC12A-His [1]): 0.39 nM
